Assay results: PMC2944808, “Binding between Crossveinless-2 and Chordin Von Willebrand Factor Type C Domains Promotes BMP Signaling by Blocking Chordin Activity” (PLoS ONE, 2010)

T1: Chordin, full-length, mouse (mouse, UniProt Q9Z0E2 27-948)
T1 construct: Chordin, mouse, full-length; source: SF9 cells, purified as described [12]
T1 sequence (looked up): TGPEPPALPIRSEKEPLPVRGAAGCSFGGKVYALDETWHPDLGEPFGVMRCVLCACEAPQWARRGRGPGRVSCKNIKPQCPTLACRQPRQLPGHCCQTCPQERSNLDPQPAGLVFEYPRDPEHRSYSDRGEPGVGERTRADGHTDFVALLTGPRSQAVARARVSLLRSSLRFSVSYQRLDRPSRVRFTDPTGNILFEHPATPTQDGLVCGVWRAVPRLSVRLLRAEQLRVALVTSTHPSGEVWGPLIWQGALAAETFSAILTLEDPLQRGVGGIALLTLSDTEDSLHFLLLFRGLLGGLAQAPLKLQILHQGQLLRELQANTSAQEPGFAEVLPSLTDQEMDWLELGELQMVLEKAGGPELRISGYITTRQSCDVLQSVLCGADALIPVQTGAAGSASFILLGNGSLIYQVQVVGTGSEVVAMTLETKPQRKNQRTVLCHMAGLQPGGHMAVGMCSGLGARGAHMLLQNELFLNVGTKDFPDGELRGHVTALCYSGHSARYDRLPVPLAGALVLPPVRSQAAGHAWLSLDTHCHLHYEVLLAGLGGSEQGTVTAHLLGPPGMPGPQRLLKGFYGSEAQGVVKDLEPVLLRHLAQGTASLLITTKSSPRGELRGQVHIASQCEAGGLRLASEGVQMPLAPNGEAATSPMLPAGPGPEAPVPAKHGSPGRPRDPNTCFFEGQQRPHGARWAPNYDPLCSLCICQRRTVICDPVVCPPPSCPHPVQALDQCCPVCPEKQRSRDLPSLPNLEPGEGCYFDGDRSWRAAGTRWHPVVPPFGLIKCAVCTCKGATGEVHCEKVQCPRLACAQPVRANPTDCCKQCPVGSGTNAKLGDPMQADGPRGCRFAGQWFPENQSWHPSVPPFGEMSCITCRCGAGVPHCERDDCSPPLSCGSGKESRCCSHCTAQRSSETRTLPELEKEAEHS


What was measured:
Details in all cases: both partners purified
BMP2, human = molecular target: T2, BMP2, human (human, UniProt P12643 283-396); assay: SPR; BIAcore 2000; BMP2 immobilised, CV2 proteins perfused; apparent KD from koff/kon; 6 to 9 analyte concentrations, at least three independent experiments
T2 construct: Bone morphogenetic protein 2 (BMP2), human; The discussion speaks of 'the BMP dimer'; also called Bone morphogenetic protein 2; source: E. coli, purified as described [40]
T2 sequence (P12643 283-396): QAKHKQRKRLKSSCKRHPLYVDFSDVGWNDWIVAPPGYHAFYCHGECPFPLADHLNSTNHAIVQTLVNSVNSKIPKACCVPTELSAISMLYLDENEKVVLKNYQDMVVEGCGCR

[1] = molecular target: T1, Chordin, full-length, mouse; assay: SPR; BIAcore 2000; Chordin immobilised, CV2 proteins perfused; apparent KD from koff/kon; 6 to 9 analyte concentrations, at least three independent experiments
[2] = molecular target: T3, VWC2 domain of Chordin, mouse (mouse); assay: SPR; BIAcore 2000; VWC2 domain of Chordin immobilised, CV2 proteins perfused; apparent KD from koff/kon; 6 to 9 analyte concentrations, at least three independent experiments
T3 construct: Chordin, mouse, von Willebrand factor type C domain 2 (VWC2); also called Chordin VWC2; VWC2 of Chordin; source: SF9 cells, purified as described [12]

Kd (BMP2, human) [nM] | Kd [1] [nM] | Kd [2] [nM] | Binder
21 | 180 | 145 | CV2-VWC1-4 (domain or fragment) not shown
50000 | 178 | 180 | CV2 ΔClip (domain or fragment) not shown
